In US20250154277A1 (CONCEPT TO MEDICINE BIOTECH, published 2025):

T1: human 5T4-His protein (human, UniProt Q13641 32-355)
T1 construct: also called recombinant 5T4 protein (human 5T4-his tag); human 5T4 protein; not shown: His tag
T1 sequence (looked up): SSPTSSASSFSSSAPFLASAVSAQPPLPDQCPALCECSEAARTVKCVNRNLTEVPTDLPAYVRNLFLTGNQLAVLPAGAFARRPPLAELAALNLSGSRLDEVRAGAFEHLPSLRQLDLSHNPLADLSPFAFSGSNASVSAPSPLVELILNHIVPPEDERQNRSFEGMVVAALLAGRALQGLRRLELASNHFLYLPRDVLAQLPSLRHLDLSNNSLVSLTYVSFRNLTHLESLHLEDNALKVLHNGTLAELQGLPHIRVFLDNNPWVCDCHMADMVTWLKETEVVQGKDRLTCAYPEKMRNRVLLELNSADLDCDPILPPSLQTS


Biological target: T1, human 5T4-His protein
Assay: ELISA, coated 5T4-His
Protocol: To evaluate the binding activity of 14G12 humanized antibodies to human 5T4, the 14G12 chimeric antibody along with 14G12 humanized mAbs were subjected to ELISA test.
Briefly, microtiter plates were coated with human 5T4-His protein at 1 μg/ml in PBS, 100 μl/well at 4° C. overnight, then blocked with […]. Serial dilutions of antibodies were added to each well and incubated for 1 hour at 37° C. The plates were washed with PBS/Tween and then incubated with Goat Anti-Human IgG-HRP for 30 mins at 37° C. After washing, the plates were developed with TMB substrate and analyzed by spectrophotometer at OD 450 nm. As shown in FIG. 10 and Table 6, most of the humanized antibodies bound to human 5T4 at high activity.

EC50 [µg/mL]	Binder
0.011	Hu14G12-33 (antibody, V domains shown, humanized) VH: QVQLVQSGAEVKKPGASVKVSCKASGYAFSSSWMNWVRQAPGQGLEWMGRIYREDGHTNYNGKFKGRVTMTADKSTTTAYMELSSLRSEDTAVYYCANGGAMDYWGQGTLVTVSS VL: DIQMTQSPSSLSASVGDRVTITCRASQDISNYLNWYQQKPGKAPKLLIYYTSRLHSGVPSRFSGSGSGTDYTFTISSLQPEDIATYFCQQDNTLPWTFGGGTKVEIK
0.4	Hu14G12-19 (antibody, V domains shown, humanized) VH: QVQLVQSGAEVKKPGSSVKVSCKASGGTFSSSWMNWVKQAPGQGLEWIGRIYREDGHTNYNGKFKGRATLTADKSTSTAYMELSSLRSEDTAVYFCANGGAMDYWGQGTTVTVSS VL: DIQMTQSPSSLSASVGDRVTITCRASQDISNYLNWYQQKPGKVPKLLIYYTSRLHSGVPSRFSGSGSGTDFTLTISSLQPEDVATYYCQQDNTLPWTFGGGTKLEIK
0.013	Hu14G12-35 (antibody, V domains shown, humanized) VH: QVQLVQSGAEVKKPGASVKVSCKASGYAFSSSWMNWVRQAPGQGLEWMGRIYREDGHTNYNGKFKGRVTMTADKSTTTAYMELSSLRSEDTAVYYCANGGAMDYWGQGTLVTVSS VL: EIVMTQSPATLSLSPGERATLSCRASQDISNYLNWYQQKPGQAPRLLIYYTSRLHSGIPARFSGSGSGTDYTLTISSLEPEDIAVYFCQQDNTLPWTFGGGTKVEIK
0.4	Hu14G12-21 (antibody, V domains shown, humanized) VH: QVQLVQSGAEVKKPGSSVKVSCKASGGTFSSSWMNWVKQAPGQGLEWIGRIYREDGHTNYNGKFKGRATITADKSTSTAYMELSSLRSEDTAVYFCANGGAMDYWGQGTTVTVSS VL: DIQMTQSPSSLSASVGDRVTITCRASQDISNYLNWYQQKPGKVPKLLIYYTSRLHSGVPSRFSGSGSGTDFTLTISSLQPEDVATYYCQQDNTLPWTFGGGTKLEIK
0.45	Hu14G12-22 (antibody, V domains shown, humanized) VH: QVQLVQSGAEVKKPGSSVKVSCKASGGTFSSSWMNWVKQAPGQGLEWIGRIYREDGHTNYNGKFKGRATITADKSTSTAYMELSSLRSEDTAVYFCANGGAMDYWGQGTTVTVSS VL: DIQMTQSPSSLSASVGDRVTITCRASQDISNYLNWYQQKPGKVPKLLIYYTSRLHSGVPSRFSGSGSGTDYTLTISSLQPEDVATYFCQQDNTLPWTFGGGTKLEIK
0.52	Hu14G12-17 (antibody, V domains shown, humanized) VH: QVQLVQSGAEVKKPGSSVKVSCKASGGTFSSSWMNWVKQAPGQGLEWIGRIYREDGHTNYNGKFKGKATLTADKSTSTAYMELSSLRSEDTAVYFCANGGAMDYWGQGTTVTVSS VL: DIQMTQSPSSLSASVGDRVTITCRASQDISNYLNWYQQKPGKVPKLLIYYTSRLHSGVPSRFSGSGSGTDFTLTISSLQPEDVATYYCQQDNTLPWTFGGGTKLEIK
0.32	Hu14G12-20 (antibody, V domains shown, humanized) VH: QVQLVQSGAEVKKPGSSVKVSCKASGGTFSSSWMNWVKQAPGQGLEWIGRIYREDGHTNYNGKFKGRATLTADKSTSTAYMELSSLRSEDTAVYFCANGGAMDYWGQGTTVTVSS VL: DIQMTQSPSSLSASVGDRVTITCRASQDISNYLNWYQQKPGKVPKLLIYYTSRLHSGVPSRFSGSGSGTDYTLTISSLQPEDVATYFCQQDNTLPWTFGGGTKLEIK
0.01	Hu14G12-30 (antibody, V domains shown, humanized) VH: QVQLVQSGAEVKKPGASVKVSCKASGYAFSSSWMNWVRQAPGQGLEWMGRIYREDGHTNYNGKFKGRVTMTADKSITTAYMELSRLRSDDTAVYYCANGGAMDYWGQGTLVTVSS VL: EIVMTQSPATLSLSPGERATLSCRASQDISNYLNWYQQKPGQAPRLLIYYTSRLHSGIPARFSGSGSGTDYTLTISSLEPEDIAVYFCQQDNTLPWTFGGGTKVEIK
0.0078	Hu14G12-42 (antibody, V domains shown, humanized) VH: QVQLVQSGAEVKKPGASVKVSCKASGYAFSSSWMNWVRQAPGQRLEWMGRIYREDGHTNYNGKFKGRVTITADKSATTAYMELSSLRSEDTAVYYCANGGAMDYWGQGTLVTVSS VL: DIQMTQSPSTLSASVGDRVTITCRASQDISNYLNWYQQKPGKAPKLLIYYTSRLHSGVPSRFSGSGSGTEYTLTISSLQPDDIATYFCQQDNTLPWTFGGGTKVEIK
0.0087	Hu14G12-34 (antibody, V domains shown, humanized) VH: QVQLVQSGAEVKKPGASVKVSCKASGYAFSSSWMNWVRQAPGQGLEWMGRIYREDGHTNYNGKFKGRVTMTADKSTTTAYMELSSLRSEDTAVYYCANGGAMDYWGQGTLVTVSS VL: DIQMTQSPSSLSASVGDRVTITCRASQDISNYLNWYQQKPGKAPKLLIYYTSRLHSGVPSRFSGSGSGTDYTLTISSLQPEDIATYFCQQDNTLPWTFGGGTKVEIK
0.0069	Hu14G12-39 (antibody, V domains shown, humanized) VH: QVQLVQSGAEVKKPGASVKVSCKASGYAFSSSWMNWVRQAPGQRLEWMGRIYREDGHTNYNGKFKGRVTITADKSATTAYMELSSLRSEDTAVYYCANGGAMDYWGQGTLVTVSS VL: DIQMTQSPSSLSASVGDRVTITCRASQDISNYLNWYQQKPGKAPKLLIYYTSRLHSGVPSRFSGSGSGTDYTLTISSLQPEDIATYFCQQDNTLPWTFGGGTKVEIK
0.0049	Hu14G12-24 (antibody, V domains shown, humanized) VH: QVQLVQSGAEVKKPGSSVKVSCKASGYAFSSSWMNWVRQAPGQGLEWMGRIYREDGHTNYNGKFKGRVTITADKSTTTAYMELSSLRSEDTAVYYCANGGAMDYWGQGTLVTVSS VL: DIQMTQSPSSLSASVGDRVTITCRASQDISNYLNWYQQKPGKAPKLLIYYTSRLHSGVPSRFSGSGSGTDYTLTISSLQPEDIATYFCQQDNTLPWTFGGGTKVEIK
0.0064	Hu14G12-38 (antibody, V domains shown, humanized) VH: QVQLVQSGAEVKKPGASVKVSCKASGYAFSSSWMNWVRQAPGQRLEWMGRIYREDGHTNYNGKFKGRVTITADKSATTAYMELSSLRSEDTAVYYCANGGAMDYWGQGTLVTVSS VL: DIQMTQSPSSLSASVGDRVTITCRASQDISNYLNWYQQKPGKAPKLLIYYTSRLHSGVPSRFSGSGSGTDYTFTISSLQPEDIATYFCQQDNTLPWTFGGGTKVEIK
0.006	Hu14G12-25 (antibody, V domains shown, humanized) VH: QVQLVQSGAEVKKPGSSVKVSCKASGYAFSSSWMNWVRQAPGQGLEWMGRIYREDGHTNYNGKFKGRVTITADKSTTTAYMELSSLRSEDTAVYYCANGGAMDYWGQGTLVTVSS VL: EIVMTQSPATLSLSPGERATLSCRASQDISNYLNWYQQKPGQAPRLLIYYTSRLHSGIPARFSGSGSGTDYTLTISSLEPEDIAVYFCQQDNTLPWTFGGGTKVEIK
0.0078	Hu14G12-27 (antibody, V domains shown, humanized) VH: QVQLVQSGAEVKKPGSSVKVSCKASGYAFSSSWMNWVRQAPGQGLEWMGRIYREDGHTNYNGKFKGRVTITADKSTTTAYMELSSLRSEDTAVYYCANGGAMDYWGQGTLVTVSS VL: DIQMTQSPSTLSASVGDRVTITCRASQDISNYLNWYQQKPGKAPKLLIYYTSRLHSGVPSRFSGSGSGTEYTLTISSLQPDDIATYFCQQDNTLPWTFGGGTKVEIK
0.028	Hu14G12-40 (antibody, V domains shown, humanized) VH: QVQLVQSGAEVKKPGASVKVSCKASGYAFSSSWMNWVRQAPGQRLEWMGRIYREDGHTNYNGKFKGRVTITADKSATTAYMELSSLRSEDTAVYYCANGGAMDYWGQGTLVTVSS VL: EIVMTQSPATLSLSPGERATLSCRASQDISNYLNWYQQKPGQAPRLLIYYTSRLHSGIPARFSGSGSGTDYTLTISSLEPEDIAVYFCQQDNTLPWTFGGGTKVEIK
